Measured values from US20120316071A1 (published 2012).
One block for each binder: values may come before it.

Key:
[1] = target: T1, rHuman HGF R/c-MET/Fc Chimera, CF (R&D Systems Cat#358-MT/CF) (human, UniProt P08581 25-932); assay: ECL Multispot (MSD), antigen spotted; Fab 50 (µM); blank 386
T1 construct: Bought recombinant protein; also called HGF R/Fc; Fc part of the bought chimera not given

[2] = target: T2, rHuman EGF R/Fc Chimera, CF (R&D Systems Cat#344-ER) (human, UniProt P00533 25-645); assay: as above
T2 construct: Bought recombinant protein; Fc part of the bought chimera not given

[3] = target: T3, rHuman ErbB2/Fc Chimera, CF (R&D Systems Cat#1129-ER) (human, UniProt P04626 23-652); assay: as above
T3 construct: Bought recombinant protein; Fc part of the bought chimera not given

[4] = target: T4, rHuman P-Cadherin/Fc Chimera, CF (R&D Systems Cat#861-PC) (human, UniProt P22223 108-654); assay: as above
T4 construct: Bought recombinant protein; Fc part of the bought chimera not given

[5] = target: T5, rHuman IGF-1 sR, CF (R&D Systems Cat#391-GR) (human, UniProt P08069 31-932); assay: as above
T5 construct: Bought recombinant soluble receptor; also called insulin-like growth factor-1 soluble receptor

[6] = target: T6, rHuman Erythropoietin R/Fc Chimera, CF (R&D Systems Cat#963-ER) (human, UniProt P19235 25-250); assay: as above
T6 construct: Bought recombinant protein; also called EPO R; EPO R/Fc; Fc part of the bought chimera not given
T6 sequence (looked up): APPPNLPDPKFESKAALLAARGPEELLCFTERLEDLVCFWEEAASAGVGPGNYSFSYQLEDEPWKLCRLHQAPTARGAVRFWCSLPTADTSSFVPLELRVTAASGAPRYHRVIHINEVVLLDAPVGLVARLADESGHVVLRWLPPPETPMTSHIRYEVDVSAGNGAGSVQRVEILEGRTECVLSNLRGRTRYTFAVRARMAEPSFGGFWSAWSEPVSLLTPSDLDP

[7] = target: T7, Recombinant Human DLL4 (R&D Systems Cat#1506-D4/CF) (human, UniProt Q9NR61 27-529); assay: as above
T7 construct: Bought recombinant protein; also called delta-like protein 4; rHuman DLL4

[8] = target: T8, rHuman Notch-1/Fc Chimera, CF (R&D Systems Cat#3647-TK) (human, UniProt P46531 19-526); assay: as above
T8 construct: Bought recombinant protein; Fc part of the bought chimera not given

[9] = target: T9, Recombinant Human DLL4 (R&D Systems Cat#1506-D4/CF) (human, UniProt Q9NR61 27-524); assay: Multispot ECL (MSD), antigen spotted on plate, Fab 500 nM; blank spot 680
T9 construct: Bought recombinant protein; also called rHuman DLL4; delta-like protein 4

[10] = target: T10, rHuman Notch-1/Fc Chimera, CF (R&D Systems Cat#3647-TK) (human, UniProt P46531 19-526); assay: as above
T10 construct: Bought recombinant protein; Fc part of the bought chimera not given

[11] = target: T11, rHuman Erythropoietin R/Fc Chimera, CF (R&D Systems Cat#963-ER) (human, UniProt P19235 25-250); assay: as above
T11 construct: Bought recombinant protein; also called EPO R/Fc; Epo R; Fc part of the bought chimera not given
T11 sequence (looked up): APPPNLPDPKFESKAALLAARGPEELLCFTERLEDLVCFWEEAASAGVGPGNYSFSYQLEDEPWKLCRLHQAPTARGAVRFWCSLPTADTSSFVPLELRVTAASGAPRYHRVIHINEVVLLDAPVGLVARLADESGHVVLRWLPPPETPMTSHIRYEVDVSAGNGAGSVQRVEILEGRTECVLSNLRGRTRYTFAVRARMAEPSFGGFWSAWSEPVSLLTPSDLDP

[12] = target: T12, rHuman IGF-1 sR, CF (R&D Systems Cat#391-GR) (human, UniProt P08069 31-932); assay: as above
T12 construct: Bought recombinant soluble receptor; also called insulin-like growth factor-1 soluble receptor

[13] = target: T13, rHuman Erythropoietin R/Fc Chimera, CF (R&D Systems Cat#963-ER) (human, UniProt P19235 25-250); assay: MSD Multispot ECL, antigen spotted on plate, Fab at 15 nM; blank spot 261
T13 construct: Bought Fc chimera; also called EPO R/Fc; Epo R; Fc part of the bought chimera not given
T13 sequence (looked up): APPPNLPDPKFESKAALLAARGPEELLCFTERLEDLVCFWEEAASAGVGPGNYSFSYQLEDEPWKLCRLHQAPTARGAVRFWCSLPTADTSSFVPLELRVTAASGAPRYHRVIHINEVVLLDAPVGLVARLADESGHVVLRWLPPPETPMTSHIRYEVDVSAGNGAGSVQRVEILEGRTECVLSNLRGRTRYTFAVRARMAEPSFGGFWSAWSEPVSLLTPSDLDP

[14] = target: T14, rHuman Notch-1/Fc Chimera, CF (R&D Systems Cat#3647-TK) (human, UniProt P46531 19-526); assay: as above
T14 construct: Bought Fc chimera; Fc part of the bought chimera not given

[15] = target: T15, Recombinant Human DLL4 (R&D Systems Cat#1506-D4/CF) (human, UniProt Q9NR61 27-524); assay: as above
T15 construct: Bought recombinant protein; also called rHuman DLL4; delta-like protein 4

[16] = target: T16, rHuman P-Cadherin/Fc Chimera, CF (R&D Systems Cat#861-PC) (human, UniProt P22223 108-654); assay: as above
T16 construct: Bought Fc chimera; Fc part of the bought chimera not given

[17] = target: T17, rHuman CD44/Fc Chimera, CF (R&D Systems Cat#3660-CD) (human, UniProt P16070 21-220); assay: as above
T17 construct: Bought Fc chimera; Fc part of the bought chimera not given

[18] = target: T18, rHuman CD44/Fc Chimera, CF (R&D Systems Cat#3660-CD) (human, UniProt P16070 21-220); assay: Multispot ECL (MSD) titration; antigen spotted on plate; Fab 98.1 nM; blank spot 210
T18 construct: Bought Fc chimera; Fc part of the bought chimera not given

[19] = target: T19, rHuman HGF R/c-MET/Fc Chimera, CF (R&D Systems Cat#358-MT/CF) (human, UniProt P08581 25-932); assay: as above
T19 construct: Bought Fc chimera; also called HGF R/Fc; hepatocyte growth factor receptor; Fc part of the bought chimera not given

B1: Fab VH1-46_IGHD6-6*01_IGHJ1*01 S102A/S103P/S104F (APF) & L6_IGKJ1*01 (Fab, V domains shown)
VH: QVQLVQSGAEVKKPGASVKVSCKASGYTFTSYYMHWVRQAPGQGLEWMGIINPSGGSTSYAQKFQGRVTMTRDTSTSTVYMELSSLRSEDTAVYYCAREEYAPFSAEYFQHWGQGTLVTVSS
VL: not shown
notes: Tested as a Fab made in E. coli: VH cloned in Plasmid A (CH1 constant region, His6 and Flag tags), VL in Plasmid C (kappa constant region); also called H:APF & L:wt; APF triple mutant
ECL signal [1]: 525 | ECL signal [2]: 585 | ECL signal [3]: 672 | ECL signal [4]: 652 | ECL signal [5]: 558 | ECL signal [6]: 768 | ECL signal [7]: 80000 | ECL signal [8]: 509

B4: Fab VH1-46_IGHD3-10*01_IGHJ4*01 & O1_IGKJ1*01 (Fab, V domains shown)
VH: QVQLVQSGAEVKKPGASVKVSCKASGYTFTSYYMHWVRQAPGQGLEWMGIINPSGGSTSYAQKFQGRVTMTRDTSTSTVYMELSSLRSEDTAVYYCAREYYYGSGSYYNDYFDYWGQGTLVTVSS
VL: DIVMTQTPLSLPVTPGEPASISCRSSQSLLDSDDGNTYLDWYLQKPGQSPQLLIYTLSYRASGVPDRFSGSGSGTDFTLKISRVEAEDVGVYYCMQRIEFPSWTFGQGTKVEIKR
notes: Germline library Fab expressed in E. coli; VH was cloned into Plasmid A (CH1 constant region, His6 and Flag tags); The kappa VL was cloned into Plasmid C (kappa CL)
ECL signal [18]: 265 | ECL signal [19]: 335

Continued, values first:

ECL signal [9]: 2320 | ECL signal [10]: 1980 | ECL signal [11]: 10300 | ECL signal [12]: 1330
B2: Fab VH1-46_IGHD6-13*01_IGHJ4*01 & B3_IGKJ1*01 (Fab, V domains shown)
VH: QVQLVQSGAEVKKPGASVKVSCKASGYTFTSYYMHWVRQAPGQGLEWMGIINPSGGSTSYAQKFQGRVTMTRDTSTSTVYMELSSLRSEDTAVYYCAREGYSSSWYDYFDYWGQGTLVTVSS
VL: not shown
notes: Germline Fab made in E. coli; VH was cloned into Plasmid A (CH1, His6 and Flag tags) and the kappa VL into Plasmid C (kappa CL)

ECL signal [13]: 397 | ECL signal [14]: 508 | ECL signal [15]: 690 | ECL signal [16]: 351 | ECL signal [17]: 454
B3: Fab VH6-1_IGHD3-3*01_IGHJ4*01 & V4-3_IGLJ4*01 (Fab, V domains shown)
VH: QVQLQQSGPGLVKPSQTLSLTCAISGDSVSSNSAAWNWIRQSPSRGLEWLGRTYYRSKWYNDYAVSVKSRITINPDTSKNQFSLQLNSVTPEDTAVYYCAREYYDFWSGYYTDYFDYWGQGTLVTVSS
VL: QPVLTQPTSLSASPGASARLTCTLRSGINLGSYRIFWYQQKPESPPRYLLSYYSDSSKHQGSGVPSRFSGSKDASSNAGILVISGLQSEDEADYYCMIWHSSASFVFGGGTQLIIL
notes: Tested as a purified germline Fab made in E. coli; The VH was cloned into plasmid A (CH1 constant region, His6 and Flag tags) and the lambda VL into plasmid E (lambda CL)
